Experimental findings from the supplement of paper PMC11811203 are described below.

B1: THAP1; numbered along this chain (parent)
chain: MVQSCSAYGCKNRYDKDKPVSFHKFPLTRPSLCKEWEAAVRRKNFKPTKYSSICSEHFTPDCFKRECNNKLLKENAVPTIFLCTEPHDKKEDLLEPQEQLPPPPLPPPVSQVDAAIGLLMPPLQTPVNLSVFCDHNYTVEDTMHQRKRIHQLEQQVEKLRKKLKTAQQRCRRQERQLEKLKEVVHFQKEKDDVSERGYVILPNDYFEIVEVPA

Variants of B1 are the subject of the data set. Description: THAP1 transcriptional activity (GFP+/GFP- enrichment relative to wild-type constructs) (ratio to WT); higher = more THAP1 activity (PSMB5 reporter activation). The note with it: with PSMB5 promoter-GFP reporter. In outline:
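In duplicate, a lentivirus-delivered library with every residue from 2–213 of human THAP1 changed to all 20 amino acids was introduced at MOI ~0.3 into THAP1-knockout HEK-293T cells carrying endogenous PSMB5 tagged by mClover3 knock-in. Five days on, BFP+ cells were binned as GFP-dim or GFP-bright, and Illumina sequencing of genomic DNA amplicons counted each variant. Activity is the bright/dim read fold change, averaged over replicates and scaled to the mean of wild-type synonymous constructs.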
In the case of MVQSCSAYGCKNRYDKDKPVSFHKFPLTRPSLCKEWEAAVRRKNFKPTKYSSICSEHFTPDCFKRECNNKLLKENAVPTIFLCTEPHDKKEDLLEPQEQLPPPPLPPPVSQVDAAIGLLMPPLQTPVNLSVFCCHNYTVEDTMHQRKRIHQLEQQVEKLRKKLKTAQQRCRRQERQLEKLKEVVHFQKEKDDVSERGYVILPNDYFEIVEVPA [D134C], the THAP1 transcriptional activity was found to be 0.156.
As to MVQSCSAYGCKNRYDKDKPVSFHKFPLTRPSLCKEWEAAVRRKNFKPTKYSSICSEHFTPDCFKRECNNKLLKENAVPTIFLCTEPHDKKEDLLEPQEQLPPPPLPPPVSQVDAAIGLLMPPLQTPVNLSVFCEHNYTVEDTMHQRKRIHQLEQQVEKLRKKLKTAQQRCRRQERQLEKLKEVVHFQKEKDDVSERGYVILPNDYFEIVEVPA [D134E], the THAP1 transcriptional activity was determined as 0.389.
The same measure for MVQSCSAYGCKNRYDKDKPVSFHKFPLTRPSLCKEWEAAVRRKNFKPTKYSSICSEHFTPDCFKRECNNKLLKENAVPTIFLCTEPHDKKEDLLEPQEQLPPPPLPPPVSQVDAAIGLLMPPLQTPVNLSVFCAHNYTVEDTMHQRKRIHQLEQQVEKLRKKLKTAQQRCRRQERQLEKLKEVVHFQKEKDDVSERGYVILPNDYFEIVEVPA [D134A]: 0.125; for MVQSCSAYGCKNRYDKDKPVSFHKFPLTRPSLCKEWEAAVRRKNFKPTKYSSICSEHFTPDCFKRECNNKLLKENAVPTIFLCTEPHDKKEDLLEPQEQLPPPPLPPPVSQVDAAIGLLMPPLQTPVNLSVFQDHNYTVEDTMHQRKRIHQLEQQVEKLRKKLKTAQQRCRRQERQLEKLKEVVHFQKEKDDVSERGYVILPNDYFEIVEVPA [C133Q]: 1.27; for MVQSCSAYGCKNRYDKDKPVSFHKFPLTRPSLCKEWEAAVRRKNFKPTKYSSICSEHFTPDCFKRECNNKLLKENAVPTIFLCTEPHDKKEDLLEPQEQLPPPPLPPPVSQVDAAIGLLMPPLQTPVNLSVFWDHNYTVEDTMHQRKRIHQLEQQVEKLRKKLKTAQQRCRRQERQLEKLKEVVHFQKEKDDVSERGYVILPNDYFEIVEVPA [C133W]: 2.31.
The figure for MVQSCSAYGCKNRYDKDKPVSFHKFPLTRPSLCKEWEAAVRRKNFKPTKYSSICSEHFTPDCFKRECNNKLLKENAVPTIFLCTEPHDKKEDLLEPQEQLPPPPLPPPVSQVDAAIGLLMPPLQTPVNLSVFTDHNYTVEDTMHQRKRIHQLEQQVEKLRKKLKTAQQRCRRQERQLEKLKEVVHFQKEKDDVSERGYVILPNDYFEIVEVPA [C133T] is 0.872; for MVQSCSAYGCKNRYDKDKPVSFHKFPLTRPSLCKEWEAAVRRKNFKPTKYSSICSEHFTPDCFKRECNNKLLKENAVPTIFLCTEPHDKKEDLLEPQEQLPPPPLPPPVSQVDAAIGLLMPPLQTPVNLSVFYDHNYTVEDTMHQRKRIHQLEQQVEKLRKKLKTAQQRCRRQERQLEKLKEVVHFQKEKDDVSERGYVILPNDYFEIVEVPA [C133Y] it is 0.913.
With MVQSCSAYGCKNRYDKDKPVSFHKFPLTRPSLCKEWEAAVRRKNFKPTKYSSICSEHFTPDCFKRECNNKLLKENAVPTIFLCTEPHDKKEDLLEPQEQLPPPPLPPPVSQVDAAIGLLMPPLQTPVNLSVFVDHNYTVEDTMHQRKRIHQLEQQVEKLRKKLKTAQQRCRRQERQLEKLKEVVHFQKEKDDVSERGYVILPNDYFEIVEVPA [C133V], the THAP1 transcriptional activity came to 2.05.
Regarding MVQSCSAYGCKNRYDKDKPVSFHKFPLTRPSLCKEWEAAVRRKNFKPTKYSSICSEHFTPDCFKRECNNKLLKENAVPTIFLCTEPHDKKEDLLEPQEQLPPPPLPPPVSQVDAAIGLLMPPLQTPVNLSVFLDHNYTVEDTMHQRKRIHQLEQQVEKLRKKLKTAQQRCRRQERQLEKLKEVVHFQKEKDDVSERGYVILPNDYFEIVEVPA [C133L], the THAP1 transcriptional activity was determined as 1.89.
Turning to MVQSCSAYGCKNRYDKDKPVSFHKFPLTRPSLCKEWEAAVRRKNFKPTKYSSICSEHFTPDCFKRECNNKLLKENAVPTIFLCTEPHDKKEDLLEPQEQLPPPPLPPPVSQVDAAIGLLMPPLQTPVNLSVFPDHNYTVEDTMHQRKRIHQLEQQVEKLRKKLKTAQQRCRRQERQLEKLKEVVHFQKEKDDVSERGYVILPNDYFEIVEVPA [C133P], the THAP1 transcriptional activity turned out to be 0.267.
Take MVQSCSAYGCKNRYDKDKPVSFHKFPLTRPSLCKEWEAAVRRKNFKPTKYSSICSEHFTPDCFKRECNNKLLKENAVPTIFLCTEPHDKKEDLLEPQEQLPPPPLPPPVSQVDAAIGLLMPPLQTPVNLSVFSDHNYTVEDTMHQRKRIHQLEQQVEKLRKKLKTAQQRCRRQERQLEKLKEVVHFQKEKDDVSERGYVILPNDYFEIVEVPA [C133S]: the THAP1 transcriptional activity turned out to be 1.44.
As for MVQSCSAYGCKNRYDKDKPVSFHKFPLTRPSLCKEWEAAVRRKNFKPTKYSSICSEHFTPDCFKRECNNKLLKENAVPTIFLCTEPHDKKEDLLEPQEQLPPPPLPPPVSQVDAAIGLLMPPLQTPVNLSVFMDHNYTVEDTMHQRKRIHQLEQQVEKLRKKLKTAQQRCRRQERQLEKLKEVVHFQKEKDDVSERGYVILPNDYFEIVEVPA [C133M], the THAP1 transcriptional activity was determined as 0.928.
As for MVQSCSAYGCKNRYDKDKPVSFHKFPLTRPSLCKEWEAAVRRKNFKPTKYSSICSEHFTPDCFKRECNNKLLKENAVPTIFLCTEPHDKKEDLLEPQEQLPPPPLPPPVSQVDAAIGLLMPPLQTPVNLSVFNDHNYTVEDTMHQRKRIHQLEQQVEKLRKKLKTAQQRCRRQERQLEKLKEVVHFQKEKDDVSERGYVILPNDYFEIVEVPA [C133N], the THAP1 transcriptional activity amounted to 1.15.
For MVQSCSAYGCKNRYDKDKPVSFHKFPLTRPSLCKEWEAAVRRKNFKPTKYSSICSEHFTPDCFKRECNNKLLKENAVPTIFLCTEPHDKKEDLLEPQEQLPPPPLPPPVSQVDAAIGLLMPPLQTPVNLSVFRDHNYTVEDTMHQRKRIHQLEQQVEKLRKKLKTAQQRCRRQERQLEKLKEVVHFQKEKDDVSERGYVILPNDYFEIVEVPA [C133R], the THAP1 transcriptional activity was determined as 1.24.
